Measured values published in patent publication US20190185568A1 (FUSO PHARMACEUTICAL INDUSTRIES, published 2019).

Assays:
[1] = target: T1, bovine FcγRI-His (soluble extracellular region with 6xHis tag) (bovine); assay: ELISA: antibody immobilized at 1.56 to 50 nM, bovine FcγRI-His added at 10 µg/ml, anti-polyhistidine detection [A]
T1 construct: extracellular domain; also called boFcγRI-His; not shown: limits not st
Method: (§1) Subsequently, each well was washed with […] of 0.05% Tween 20-supplemented PBS (PBS-T) five times, followed by blocking with SuperBlock (PBS) Blocking Buffer (Thermo Fisher Scientific) at 37° C. for 30 min, Each well was washed again in the same manner. Then, bovine FcγRI-His, FcγRII-His, FcγRIII-His or Fcγ2R-His was added to each well at a final concentration of 10 μg/ml and reacted at 37° C. for 1 hr. After washing, anti-polyhistidine tag mouse monoclonal antibody (Abeam) was reacted at 37° C. for 30 min. Subsequently, each well was washed, and horseradish peroxidase-labeled anti-mouse IgG goat polyclonal antibody (MP Biomedicals) was reacted at 37° C. for 30 min. Each well was washed again, and then TMB One Component Substrate (Bethyl) was added for coloring. Thereafter, the enzyme reaction was terminated with 0.18 M dilute sulfuric acid, and absorbance (450 nm) was measured with Microplate Reader MTP-900 (Corona Electric), For every plate washing operation, Auto Plate Washer BIO WASHER 50 (DS Pharma Biomedical) was used.

[2] = target: T2, bovine FcγRII-His (soluble extracellular region with 6xHis tag) (bovine, UniProt Q28110 43-225); assay: ELISA: antibody immobilized at 1.56 to 50 nM, bovine FcγRII-His added at 10 µg/ml, anti-polyhistidine detection [B]
T2 construct: extracellular domain; also called boFcγRII-His
T2 sequence: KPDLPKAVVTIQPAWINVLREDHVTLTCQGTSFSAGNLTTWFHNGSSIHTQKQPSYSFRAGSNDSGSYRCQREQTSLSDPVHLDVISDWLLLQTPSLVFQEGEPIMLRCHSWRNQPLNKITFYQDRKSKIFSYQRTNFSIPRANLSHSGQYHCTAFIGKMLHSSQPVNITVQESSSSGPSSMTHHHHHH
Method: as §1

[3] = target: T3, bovine PD-1-His (soluble bovine PD-1 extracellular region with 6xHis tag) (bovine); assay: SPR (Biacore X100), bovine PD-1-His immobilized on CM5 chip, antibody as analyte, single kinetics, n=3
T3 chain: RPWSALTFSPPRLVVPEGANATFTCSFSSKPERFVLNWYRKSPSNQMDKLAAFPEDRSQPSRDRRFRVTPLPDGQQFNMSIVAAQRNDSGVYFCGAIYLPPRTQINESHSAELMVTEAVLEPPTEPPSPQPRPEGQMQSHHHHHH
Method: The binding avidities to bovine PD-1 of rat anti-bovine PD-1 antibody 5D2 and rat-bovine chimeric anti-bovine PD-1 antibody ch5D2 were measured by surface plasmon resonance using a bimolecular interaction analyzer (Biacore X100). Briefly, bovine PD-1-His (described above) was immobilized on a CM5 sensor chip (GE Healthcare) as a ligand. Subsequently, rat anti-bovine PD-1 antibody 5D2 or rat-bovine chimeric anti-bovine PD-1 antibody ch5D2 was reacted as an analyte, followed by single kinetics analysis. The experiment was repeated 3 times under the same conditions. Binding constant (kd value) and dissociation constant (ka value) were determined in each experiment, and binding avidity (KD value) was obtained.

B1: rat-bovine chimeric anti-bovine PD-1 antibody ch5D2 having wild-type bovine IgG1 (IgG1 WT) (antibody)
heavy: QVQLKETGPGLVQPTQTLSITCTVSGFSLTSYYIQWVRQTPGKGLEWMGFIRSGGSTEYNSEFKSRLSINRDTSKNQVFLKMNSLKTEDTGVYYCARTSSGYEGGFDYWGQGVMVTVSSASTTAPKVYPLSSCCGDKSSSTVTLGCLVSSYMPEPVTVTWNSGALKSGVHTFPAVLQSSGLYSLSSMVTVPGSTSGQTFTCNVAHPASSTKVDKAVDPTCKPSPCDCCPPPELPGGPSVFIFPPKPKDTLTISGTPEVTCVVVDVGHDDPEVKFSWFVDDVEVNTATTKPREEQFNSTYRVVSALRIQHQDWTGGKEFKCKVHNEGLPAPIVRTISRTKGPAREPQVYVLAPPQEELSKSTVSLTCMVTSFYPDYIAVEWQRNGQPESEDKYGTTPPQLDADSSYFLYSKLRVDRNSWQEGDTYTCVVMHEALHNHYTQKSTSKSAGK
light: DVVLTQTPVSLSVTLGDQASISCRSSQSLEYSDGYTYLEWYLQKPGQSPQLLIYGVSNRFSGVPDRFIGSGSGTDFTLKISRVEPEDLGVYYCFQATHDPDTFGAGTKLELKQPKSPPSVTLFPPSTEELNGNKATLVCLISDFYPGSVTVVWKADGSTITRNVETTRASKQSNSKYAASSYLSLTSSDWKSKGSYSCEVTHEGSTVTKTVKPSECS
notes: also called ch5D2 IgG1 WT
[1]
  EC50 (read off the curve): ~9 nM
[2]
  binding result: binds

B2: rat-bovine chimeric anti-bovine PD-1 antibody ch5D2 (mutated bovine IgG1, IgG1 ADCC-) (antibody)
heavy: QVQLKETGPGLVQPTQTLSITCTVSGFSLTSYYIQWVRQTPGKGLEWMGFIRSGGSTEYNSEFKSRLSINRDTSKNQVFLKMNSLKTEDTGVYYCARTSSGYEGGFDYWGQGVMVTVSSASTTAPKVYPLSSCCGDKSSSTVTLGCLVSSYMPEPVTVTWNSGALKSGVHTFPAVLQSSGLYSLSSMVTVPGSTSGQTFTCNVAHPASSTKVDKAVDPTCKPSPCDCCPPPPVAGPSVFIFPPKPKDTLTISGTPEVTCVVVDVGHDDPEVKFSWFVDDVEVNTATTKPREEQFNSTYRVVSALRIQHQDWTGGKEFKCKVHNEGLPSSIVRTISRTKGPAREPQVYVLAPPQEELSKSTVSLTCMVTSFYPDYIAVEWQRNGQPESEDKYGTTPPQLDADSSYFLYSKLRVDRNSWQEGDTYTCVVMHEALHNHYTQKSTSKSAGK
light: B1 light
notes: Rat 5D2 variable regions on bovine IgG1 (modified from GenBank X62916) and bovine Ig lambda (X62917); also called ch5D2 IgG1 ADCC-
[3]
  Kd: 10.5 nM
  koff: 0.000216 s⁻¹
  kon: 20700 M⁻¹ s⁻¹
[2]
  binding result: no binding (tested: 50 nM)

B3: rat anti-bovine PD-1 monoclonal antibody 5D2 (antibody, V domains shown)
VH: QVQLKETGPGLVQPTQTLSITCTVSGFSLTSYYIQWVRQTPGKGLEWMGFIRSGGSTEYNSEFKSRLSINRDTSKNQVFLKMNSLKTEDTGVYYCARTSSGYEGGFDYWGQGVMVTVSS
VL: DVVLTQTPVSLSVTLGDQASISCRSSQSLEYSDGYTYLEWYLQKPGQSPQLLIYGVSNRFSGVPDRFIGSGSGTDFTLKISRVEPEDLGVYYCFQATHDPDTFGAGTKLELK
notes: Rat monoclonal antibody from a hybridoma; Rat IgG2a (kappa) was used as its isotype control; also called rat anti-bovine PD-1 antibody 5D2
[3]
  Kd: 12.2 nM
  koff: 0.000215 s⁻¹
  kon: 18400 M⁻¹ s⁻¹
